Experimental data from paper PMC10580930.

Tests used:
[1] = system: C[C@@H](O)[C@H]1C(=O)N2C(C(=O)O)=C(S[C@@H]3CN[C@H](C(=O)N(C)C)C3)[C@H](C)[C@H]12; test: purified protein; details: phosphate-buffered solution (1x), 50 µM ZnSO4, room temperature
[2] = system: C[C@@H](O)[C@H]1C(=O)N2C(C(=O)O)=C(SCCN=CN)C[C@H]12; test: purified protein; details: phosphate-buffered solution (1x), 50 µM ZnSO4, room temperature

Substance: VIM-2 (Pseudomonas aeruginosa)
- Km [1]: 5.37 µM
- kcat [1]: 2.1 s⁻¹
- kcat/Km [1]: 400000 M⁻¹ s⁻¹
- Km [2]: 10.31 µM
- kcat [2]: 11.1 s⁻¹
- kcat/Km [2]: 1.1e+06 M⁻¹ s⁻¹
